Measurements: paper PMC5038921 (Journal of biomolecular screening, 2016)

Legend:
[1] = biological target: T1, RMI core complex (RMI1 OB2 domain with RMI2) (Homo sapiens, UniProt Q96E14+Q9H9A7); test: ITC; format: binding
T1 sequence (Q9H9A7 473-625 limits assumed): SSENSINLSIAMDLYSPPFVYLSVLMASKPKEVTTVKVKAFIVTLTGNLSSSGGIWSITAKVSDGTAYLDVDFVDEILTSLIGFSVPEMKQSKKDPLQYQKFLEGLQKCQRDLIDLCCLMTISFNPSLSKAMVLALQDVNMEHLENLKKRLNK
T1 sequence (Q96E14 1-147): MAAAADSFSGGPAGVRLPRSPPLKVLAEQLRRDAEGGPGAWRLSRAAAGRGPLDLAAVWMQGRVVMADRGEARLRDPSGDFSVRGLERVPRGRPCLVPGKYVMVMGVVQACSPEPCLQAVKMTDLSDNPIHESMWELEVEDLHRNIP

F-MM2 MM2 (Homo sapiens) = F-MM2 MM2 (Homo sapiens) (UniProt Q8IYD8); test: FP; details: cited from earlier work
[2] = biological target: RMI core complex (OB2 domain of RMI1 and the entirety of RMI2) (UniProt Q96E14); test: fluorescence polarisation
[3] = biological target: RMI core complex with a N-terminal 6X-His tagged RMI2 (UniProt Q96E14); test: AlphaScreen or HTRF

## CCOC(=O)N1CCN(C(c2ccccn2)c2c(-c3ccccc3)n(O)c3ccccc23)CC1 (stereo not shown) [PIP-199]
[1]
  Kd: 3400 ± 1000 nM

## RMI core complex core complex (from UniProt Q9H9A7)
F-MM2 MM2 (Homo sapiens)
  Kd: < 5 nM

## MM2 peptide from FANCM (unlabeled)
[2]
  IC50: 510 nM
[3]
  IC50: 180 nM
